From patent US12590951B2, “Culture medium and culture method for primary cells of intestinal cancer” (PRECEDO PHARMACEUTICALS CO., LTD, priority 2021, dated 2026)

B1: KGF: medium additive from R&D (protein, UniProt P21781 32-194, looked up)
Fibroblast growth factor 7: CNDMTPEQMATNVNCSSPERHTRSYDYMEGGDIRVRRLFCRTQWYLRIDKRGKVKGTQEMKNNYNIMEIRTVAVGIVAIKGVESEFYLAMNKEGKLYAKKECNEDCNFKELILENHYNTYASAKWTHNGGEMFVALNQKGIPVRGKKTKKEQKTAHFLPMAIT
B2: IL-22: medium additive from Peprotech (protein, UniProt Q9GZX6 34-179, looked up)
Interleukin-22: APISSHCRLDKSNFQQPYITNRTFMLAKEASLADNNTDVRLIGEKLFHGVSMSERCYLMKQVLNFTLEEVLFPQSDRFQPYMQEVVPFLARLSNRLSTCHIEGDDLHIQRNVQKLKDTVKKLGESGEIKAIGELDLLFMSLRNACI
B3: R-spondin1: medium additive, R-spondin family protein from R&D (protein, UniProt Q2MKA7 21-263, looked up)
R-spondin-1: SRGIKGKRQRRISAEGSQACAKGCELCSEVNGCLKCSPKLFILLERNDIRQVGVCLPSCPPGYFDARNPDMNKCIKCKIEHCEACFSHNFCTKCKEGLYLHKGRCYPACPEGSSAANGTMECSSPAQCEMSEWSPWGPCSKKQQLCGFRRGSEERTRRVLHAPVGDHAACSDTKETRRCTVRRVPCPEGQKRRKGGQGRRENANRNLARKESKEAGAGSRRRKGQQQQQQQGTVGPLTSAGPA
B4: Noggin: medium additive from R&D (protein, UniProt Q13253 28-232, looked up)
Noggin: QHYLHIRPAPSDNLPLVDLIEHPDPIFDPKEKDLNETLLRSLLGGHYDPGFMATSPPEDRPGGGGGAAGGAEDLAELDQLLRQRPSGAMPSEIKGLEFSEGLAQGKKQRLSKKLRRKLQMWLWSQTFCPVLYAWNDLGSRFWPRYVKVGSCFSKRSCSVPEGMVCKPSKSVHLTVLRWRCQRRGGQRCGWIPIQYPIISECKCSC
B5: FGF10: medium additive from sino biological (protein, UniProt O15520 38-208, looked up)
Fibroblast growth factor 10: QALGQDMVSPEATNSSSSSFSSPSSAGRHVRSYNHLQGDVRWRKLFSFTKYFLKIEKNGKVSGTKKENCPYSILEITSVEIGVVAVKAINSNYYLAMNKKGKLYGSKEFNNDCKLKERIEENGYNTYASFNWQHNGRQMYVALNGKGAPRRGQKTRRKNTSAHFLPMVVHS

Test system: primary cells of intestinal cancer
Test: Effect of single additives in Basic Medium on proliferation of primary cells of intestinal cancer (cell count)
Assay type: cell-based, human
Design: key: +: compared with the Basic Medium, the medium added with the additive(s) has the effect of promoting the proliferation of primary cells of intestinal cancer isolated from intestinal cancer tissue in at least two cases; −: the medium added with the additive(s) has the effect of inhibiting the proliferation of primary cells of intestinal cancer isolated from intestinal cancer tissue in at least one case; ∘: the medium added with the additive(s) has no significant effect on the proliferation of primary cells of intestinal cancer isolated from intestinal cancer tissue in at least two cases
Conditions: additive at the final concentration in Basic Medium; samples OE0042 and OE(E)003; 7-10 days; compared with Basic Medium
Protocol: First, Basic Medium was prepared. The formulation of Basic Medium is: DMEM/F12 medium (purchased from Corning)+5 μM Y27632 (purchased from MCE)+5% (v/v) fetal bovine serum (purchased from Excell Bio)+100 μg/mL Primocin (purchased from InvivoGen, 0.2% (v/v), the concentration of commercial product is 50 mg/ml).
Different types of additives (see Table 1) were added to the Basic Medium to prepare the culture mediums for primary cells of intestinal cancer containing different components.
The culture mediums of different components as shown in Table 1 were added into a 48-well plate at a volume of 1 mL/well. Primary cells of intestinal cancer isolated from two cases of intestinal cancer tissues (numbered OE0042 and OE(E)003) according to the above step (2) were inoculated into the 48-well culture plate at a cell density of 3×10^4 cells/well, and were cultured at 37° C., under 5% CO2 concentration. After culturing for 7-10 days, when the cells grew to 85%, the culture medium was discarded, and 100 μL/well of 0.05% trypsin (purchased from Gibco) was used to rinse the cells once. After the trypsin was removed, 200 μL of 0.05% trypsin was added to each well. The plate was then placed in a 37° C., 5% CO2 incubator for 10 minutes, and the cells were observed under a microscope (CNOPTEC, BDS400), showing that the cells had completely digested. 300 μL of DMEM/F12 medium containing 10% serum (Excell Bio, FND500) was added to stop the digestion. 20 μL of the resultant was added into a cell counting plate (Countstar, specification: 50 pieces/box), and the total number of cells was counted with a cell counter (Countstar, IC1000). Specifically, Basic Medium without any additives was used as an experimental control, and the experimental results are shown in Table 1.

| Molecule | Level of promoting cell proliferation |
| --- | --- |
| B1 | ∘ |
| B2 | − |
| B3 | ∘ |
| B4 | ∘ |
| B5 | − |
